Reference: the DeepSol protein solubility set

Experiment: soluble on expression in E. coli; label from the status in PepcDB or PDB records
For “MSLGEKRVELHLHTPMSQMDAVTPVSKLVAQAGKWGHEAIAVTDHAVAQSFPEAYSAGKKAGVKVIYGVEANLVNDGVPIAYNEEHRLLADETYVVFDVETTGLSAVYDTVIELAAVKVKGGEIIDRFESFANPHQPLSATIIELTGITDDMLTDAPEVDEVFKKFEEWMGDHTLVAHNASFDMGFINVGFKKAGLEKTKNPVIDTLELARFLFPEMKNHRLNTLCKKMDIELTQHHRAIYDTEATGYLLVKMLKDVIEKGFEYHDQLNDSMGQGDAYKRGRPSHMTLLATSDVGLKNLYKLVSYSHLNYFYRVPRVPRSLLKKYREGILVGTACDKGEVFEAMMQKAPEEVEEIAQFYDYIEVMPPEVLRHLVERELVRDEGQLKTIISNLVKLGETLDKPVVATGNVHYLDPEDAMYRKILVSSQGGANPLNRHSEGHHHHHH”, the “soluble on expression in E. coli” value was “soluble”. With “MSLGEPEELVIGGVFSLSSGTSVEACRQALAGAMAAVEWVNSNGGVNIGGSKVPVRLLQEDDKGDPANAVRLIEYMARQRGVGVMLAPCDPGVLVDAVEAARGYGVVSIVYGDAPASVADPGGKTLLVGAPAEEYFTPVLEMVSILDIQSRNLAIVYQDTGFAAAVAEATRNRAVEQGFVVVLYSAYPPQAGEEELGTLALRLQASNPDVIIAIGGFRDGVELVRAMSSYGVEAKFIAMAVAPSVPEFYSELGALSQAILYPTLWELASKPYTTAEGYEWFGPSREEFYSLFREAIESLGHPVSEPGYHAAMAALAVLAVAKAAEEAGSLDPDAIYESLKNIKIMTFAGPFDLNPETGLQNEREVLVGQWINGRRFTVWPVGQAYATPVYPHEGHHHHHH” the “soluble on expression in E. coli” value was “soluble”. For “MSLGFVPVRGLHHFAYRCRDAEETRQFYEGILGLPLVHVVRAEEVPSTGEYCPYMHLFFEMKDGSCVAFFDLDDDTVPLPSSNTPVWAQHLALRVDSVAAVEEAKRKLEQAGVKVLGPVDHDGFVCSIYFFDPNGVRLELTTDTAEGHHHHHH”, the “soluble on expression in E. coli” value was “soluble”. In the case of “MSLGGSIKSPQSLTIDIIKRDYLNFKNKKILSFKDIKPKYDSQSDYHGNAIYYFMFYNKLKEFENIQNEKFKIKKEILKSYIIIIDEINRGNVSKIFGELITLIEPSKRIGEKEELKVTLPYSGEKFGVPKNVYIIGTMNTADRSITSLDTALRRRFEFVEMMPDVSKLSMDCEGINLQELLKAINTRIEYLLDREKTIGHAFFVSVENLEDLKKVFQNKIIPLLQEYFYNDYALINAVLNDNDMIFEDKKDDKYLQKIKNLDSVNSERSIYNIASFDDKIWDKIEIYQAIYNDEIANKLKNEGHHHHHH”, the “soluble on expression in E. coli” value is reported as “not soluble”. For “MSLGKEAEMNYPTDEKNFFQILEEQLSYFKINKKIKEICIFIINNLDKKGYLELSKIEIKDILEVSNKELEEAFDIIHNLEPYGIGAYSLEECLKIQLKAKKIIEEKLSLFIDNYLYLLADKKYDLIKEKLNINDNILFSYIDIIKSLNPIPSRGYSVGKVRKIIPDVLVEIKKNEIFYEINRASIPQINVKDKIEDKYYKKINEIISCIEKRFETIDKIMKIIIREQKIFFTSQGKKINTLKISDIADKLNLSPSTVSRAVKEKYIKTNFGIISLRKLFNLDSAVFLYQQKILEYIENENKENPISDQDIVNLLEKDGIKIARRTVTKYREKLGYKSSHKRKKYEGHHHHHH”, the “soluble on expression in E. coli” value was “not soluble”. With “MSLGLVVLKFGGTSVSTVDKIGKTADQAIYEKKQGNKVIVVVSAMGKSTDKLVAMAEEISEAPDKREMDMLLSTGEQITIALLAMTLKEKGHDAISYTGWQAGIETEAVHSNARIADIDSARIESALDAGQIVVVAGFQGFTTDGEITTLGRGGSDTTAVAIASALNAEKCAICTDVVGVFTTDPRYVKKAQKLEQITYDEMLELANLGAGVLHPRSVEYAKNFRIPLEVRASHEQVPGTMIEEDLTMENTKVVRGIAFEDQITRVTIHWKQKEAMRVSKVFTKLAENNIDVDIIIQGITGLGHGNLSFTIKTSALLATLAVLEESKELLQIEKLESEQELAKVSIVGSGMVSNPGVAAQMFEALTENNIPIKMISTSEIKVSTVVPARKMVEAAQVLHDQFELDKEGHHHHHH” the “soluble on expression in E. coli” value was “not soluble”. For “MSLGRIYRGVEVGDVALGGKTPEEAREIVLRRAEGALERVELRGGPEGEISFDARRMGIDYKVRETVQAAYAVGREGNLLERLGERLRAAYGTVQIEPRVDYRPSVARQRIEEVASRLDRPPRQAEVNVYGSEVDVVGSREGYRVDVEATMRSVGEAVEDMSGEARLVGRVLEPEYTTAEAERAAERARRALDGELVLTYEGRRWTVSPAAIGDSLDITARDGEFRVGVDRDRLRENLSGVYAAINQEPVEAGYEISGEQITVTPSRTGRAIQDEKLLGAIEEGIFEGRREYRIPVAVDRPELTTAEAERLKPTDLLATYQTNYLTYDDSPGRVENLEIASEAVDGTLLAPGEVFSFNELAAPLDYHDTKVIINGRVDTAEGGGLCQVSSTLYMAANLAGLDVIERHPHYAELPYIRPGFDATVWFGALDMKFKNTSPGYILIREWVDRSTGTVNAAIYGRPSGIEVDMRSEKVSETVDEEGNPVTTWITYQTVRKNGEVVFDGVLHKDVYKYLKPAAPDAEGHHHHHH”, the “soluble on expression in E. coli” value was “soluble”. With “MSLGRLVLNTKEELANERLMTLKIAEMKEAMRTLIFPPSMHFFQAKHLIERSQVFNILRMMPKGAALHLHDIGIVTMDWLVRNVTYRPHCHICFTPRGIMQFRFAHPTPRPSEKCSKWILLEDYRKRVQNVTEFDDSLLRNFTLVTQHPEVIYTNQNVVWSKFETIFFTISGLIHYAPVFRDYVFRSMQEFYEDNVLYMEIRARLLPVYELSGEHHDEEWSVKTYQEVAQKFVETHPEFIGIKIIYSDHRSKDVAVIAESIRMAMGLRIKFPTVVAGFDLVGHEDTGHSLHDYKEALMIPAKDGVKLPYFFHAGETDWQGTSIDRNILDALMLNTTRIGHGFALSKHPAVRTYSWKKDIPIEVCPISNQVLKLVSDLRNHPVATLMATGHPMVISSDDPAMFGAKGLSYDFYEVFMGIGGMKADLRTLKQLAMNSIKYSTLLESEKNTFMEIWKKRWDKFIADVATKEGHHHHHH” the “soluble on expression in E. coli” value was “not soluble”. For “MSLGTFPAGVSADSVFVGLTIPLTGVFSGDGGDLKLGYELAIAQINAGSDIAQKWGLKGKGVLGRQIRHKVSDTEGKPNLDVQSATQFIQRDKAIMVSGSVSSSSAIALEELGSREKVLYMVGIAGSNDITGKNCQRYGFRSQQNAYMAAKGLAPVVAKALGKNIKMAFLVPDYTYGHSVYDSFSKFATEQGWKQVAKEVVPLGTTDYSSALLNIANSGADVFVNIAFGADSVASTKQAEQFGVLKRMKLVVPNLSSFQDKELGAELMQGVYGSCDFWFGLQDKFPLAKAFVDSFVAQNNYHPRWGAHIGYMQTYLWAMSVERANTFNPVDVIKVMENSKAQPYVTTIGNVYFRAEDHQMVRPIPILRGKKPSEMKHKEDFYDIIDLVDGEAVMNPPDLFGCKLGPYTEGHHHHHH”, the “soluble on expression in E. coli” value was “soluble”. In the case of “MSLGVEGEMQSFMSDMGVQANVTGPSAYQGQSAGYYSMGSVWSRFPQKNIQPFNLQLPHARAGCGGIDLFAGSFSFINTAELVAMLKATANNALGFAFKLAIDTISPEIGKVMDELAQKVQQMNQMNISSCETAQALVGGLWPKSDTASSVICEAIANSQGAVSDWARARQQCNNGGQREALKSANSDPDMKEQAGMPNNYTWAALGKKYGGFDTQFREFLMTLVGTVIYDPAGNGGKPRVQFIGPADPALISAMLDGTSSTPHKYWSCGGDSAKCMAPSEIDMVIGPNAAIKARVRTLIESMALKVRDPGASLTPAEIQLLGMASVPVYKIITVSAAAEFGISAQEINDLSEIVAVDLVTTMTMRFIDMAVNARSDFNGADADSLREWREGLYETRRNFLGIAARTSQRFDQTFALIQRTQMLEKTLRTQLSPQMSAALRFSRTLGSQVQEGHHHHHH”, the “soluble on expression in E. coli” value is reported as “not soluble”. In the case of “MSLGVKVKVINGGVLISQDLSCAGQVSTSVALPILGACGARPTVLPTAILSTHTGFKDNTYLDLSNEMSRIMSHWQKIDLEFKAIYLGYLGKEALDFWIKNIEQIIRTNQVVLIDPAMADHGKMYRGLDTDYIKKMRQLIFKATILTPNITEAAFLLNEDIPENSLEKAQVLAEKLVQRFAIPNVIITGITLSKDKIGEVGITKEGKWSIIQEKMPGDFFGTGDMFASAFLAAVLYGKNLEKSCAIAAEFVKLAIIDMDQKLESLFGPNYAAGLPWLLSELEKEGHHHHHH”, the “soluble on expression in E. coli” value is reported as “soluble”. For “MSLGVTVSKNEAQRLENLTRDALLSTRRLSLIVDLDQTIIHTTVDPTVAEWMDEIHREEMKDAQEKANVPTEEVKGKGEETTTPPGSPGPGALGITVESPKEKNPNAEALRDVAKFQIADDLPPGYVKLKTKTTKGQNPPESEGRWYFTKPRPGLQRFLDEMCQLYEMHVYTMGTRTYADAIVKVIDPDGKIFGGRILSRDESGSFSSKNLKRLFPTDTSMVVVIDDRSDVWGDCPNLVKVVPYDFFLGIGDINSSFLPTNKSTEGHHHHHH”, the “soluble on expression in E. coli” value was “soluble”. In the case of “MSLGYKCVYMLSEIKEYLKNTVLFAFDFETSPRDKWRNDKSAALDAHKADITGISFSVSEGTAIYVPLKHRSGRNAENQAAIWDYLKLLFESKDVIKVAHNLAFESMFLYARGIVLQKPCYDTIAASQLTLKSKWEFRSLADSGLKTLAPALCKAEMTEFSTVTEGRFFDELNPQDEKTVRYACADSDYTLRLYHVFNQWFDRFLPKHRTIVEEVESPTSVYVGIMKYNGILVDKSAMLKKQAEAAEKIVSIRKEIAGIIGNVEIGANASTSAFKKYLFVDLGLPVMKTTAKHQEAADDETMILLKEWCATNRPELVRLFELVQEYRKWGKLKSTYIDGYLRFIDEDTGRIHPDLMPLGTETGRFASRNPNMQNCPQKDNDPIGVRKFIIAPAGKVLLSLDFSQIELRVGAFYCRDKRMLETYRTGGDIHAQTTSVIYRIPFEEAADKNAPHYKERRTIAKNCNFGVFYGLFPTGLQRTLKFKAGINPTLAECETIIQNLKSGYPGLAKWQDEVKKRAAVSCYSETWLGRRRYLLGIRSSDWGKKSFAERCALNTPIQGTAADILKLACGRIISGLPERLWLKPMLQIHDELVFELPEDKVDEAVVFIKECMETQPFPAFDVPIVAEASVGRNFGEMKEMEEGHHHHHH”, the “soluble on expression in E. coli” value is reported as “soluble”. For “MSLHAAAVGPSVLPDLREQVEQIIAEARRQGASACEVAVSLEQGLSTSVRQGEVETVEFNRDQGFGITLYAGQRKGSASTSATGEAAIRETVAAALAIARHTSEDECAGLADAALMARELPELDLYHPWSLSPEQAVERALACEAAAFAADKRVTKADGTTLNTHQGCRVYGNSHGFIGGYASTRHSLSCVMIAEGEGQMQRDYWYDVNRRGEALASAESIGRRAAERAASRLGARPVQTAEVPVLFAPEIAVGLFGHFLGAISGGSLYRKSSFLEGALGQRLFPEWLSIDERPHLVGALGSASFDSDGLATYAKPFVENGELVSYVLGTYSGRKLGLPSTANAGGVHNLFVSHGDEDQAALIRRMERGLLVTELMGQGVNLVTGDYSRGAAGYWVENGEIQFPVQEVTIAANLRDLFRRIVAVGKDIERRGNLHTGSVLVESMMVAGR”, the “soluble on expression in E. coli” value was “soluble”. With “MSLHEASIALALIDVAGDVLREHGAARASALTVRVGQWSSVVPEALAAAFPACAEGTPLAGARLSIERVPGVGECPQHGPVELEVWRGLRCPLCGAPTPRLLQGDELELDQLELDQLELENLEGHHHHHH” the “soluble on expression in E. coli” value was “not soluble”. For “MSLHPETSTELADIRKKAGRRRSIVFVAGNFNIVHPGHLRLLKFAADCGDYLVVGVTADPGYDWMLPAELRLEGVRAIGVVDHAFLLHDAPEDFIAALQPSVVVKGKEHEGADNPEKAVLDGYGGRLVFSSGEVAFSSLDLIKREFREFNPSSIVKPLDYPRRHRFELLELKNVLAGFPKLRVLVLGDLIVDEYIACDPLGLSQEDPTIVVTPVLRELFVGGAGIVAGHAAGMGAQVALLTVGGGDAMADFARERLASYNVDATILTDESRPTTTKQRFRAGNKTLLRVSHLKQHDVDADLQTRMLETIEHRLPSTDLVVFSDFNYGCLPTRLVEAIGQACRARGVPMVADSQSSSQVGDISRFAEMLLIKPTEREARLAMRDFDSGLVVLVEALREKARAKNVILTLAAEGLLVHAETGSAGTVVTDRLPAFNTAPKDAAGAGDSFFVCAALALAIGTDIWRSAYLASIAAACQVGRIGNIPVTARDIIRELDTEGHHHHHH”, the “soluble on expression in E. coli” value was “soluble”.
